Holding throughout (conditions): remark: other sources report otherwise
Assay [1] addresses T1, recombinant soluble homotrimeric HA of A/Anhui/1/05 (H5N1) (Influenza A virus A/Anhui/1/2005 (H5N1)). Nature of the assay: HA microarray, BCC supernatant.
For assay [2], the target named is T2, recombinant soluble homotrimeric HA of A/California/4/09 (H1N1) (Influenza A virus A/California/04/2009 (H1N1)). As to the kind of experiment: HA microarray, BCC supernatant.
In assay [3] the target is T3, recombinant soluble homotrimeric HA of A/Egypt/3300-NAMRU3/08 (H5N1) (Influenza A virus A/Egypt/3300-NAMRU3/2008 (H5N1)). Nature of the assay: HA microarray, BCC supernatant.
The target in assay [4] is T4, recombinant soluble homotrimeric HA of A/Indonesia/5/05 (H5N1) (Influenza A virus A/Indonesia/5/2005 (H5N1)). As to the kind of experiment: HA microarray, BCC supernatant.
For assay [5], the target named is T5, recombinant soluble homotrimeric HA of A/Japan/305/57 (H2N2) (Influenza A virus A/Japan/305/1957 (H2N2)). As to the kind of experiment: HA microarray, BCC supernatant.
The target in assay [6] is T6, recombinant soluble homotrimeric HA of A/Solomon Islands/3/06 (H1N1) (Influenza A virus A/Solomon Islands/3/2006 (H1N1)). Nature of the assay: HA microarray, BCC supernatant.
Assay [7] has as its target T7, recombinant soluble homotrimeric HA of A/Vietnam/1203/04 (H5N1) (Influenza A virus A/Vietnam/1203/2004 (H5N1)). Nature of the assay: HA microarray, BCC supernatant.
Assay [8] addresses T8, recombinant soluble homotrimeric HA of A/Wisconsin/67/05 (H3N2) (Influenza A virus A/Wisconsin/67/2005 (H3N2)). As to the kind of experiment: HA microarray, BCC supernatant.
In assay [9] the target is T9, recombinant soluble homotrimeric HA of A/chicken/Vietnam/NCVD-016/08 (H5N1) (Influenza A virus A/chicken/Vietnam/NCVD-016/2008 (H5N1)). Nature of the assay: HA microarray, BCC supernatant.
The target in assay [10] is T10, recombinant soluble homotrimeric HA of A/duck/Yangzhou/02/2005 (H8N4) (Influenza A virus A/duck/Yangzhou/02/2005 (H8N4)). Nature of the assay: HA microarray, BCC supernatant.
Assay [11] addresses recombinant soluble homotrimeric HA of A/northern shoveler/California/HKWF115/2007 (H6N1) (Influenza A virus A/northern shoveler/California/HKWF115/2007 (H6N1)). Nature of the assay: HA microarray, BCC supernatant.
For assay [12], the target named is recombinant soluble homotrimeric HA, A/Hong Kong/1073/99 (H9N2) (influenza A virus A/Hong Kong/1073/99 (H9N2)). As to the kind of experiment: microarray, trimeric HA, transfection supernatant.
The target of assay [13] is recombinant soluble homotrimeric HA, A/Hong Kong/2108/03 (H9N2) (influenza A virus A/Hong Kong/2108/2003 (H9N2)). Nature of the assay: microarray, trimeric HA, transfection supernatant.
For assay [14], the target named is recombinant soluble homotrimeric HA, A/chicken/Vietnam/NCVD-016/08 (H5N1) (influenza A virus A/chicken/Vietnam/NCVD-016/2008 (H5N1)). Nature of the assay: microarray, trimeric HA, transfection supernatant.
Assay [15] deals with recombinant soluble homotrimeric HA, A/northern shoveler/California/HKWF115/2007 (H6N1) (influenza A virus A/northern shoveler/California/HKWF115/2007 (H6N1)). Nature of the assay: microarray, trimeric HA, transfection supernatant.
Assay [16] has as its target recombinant homotrimeric HA, A/Wisconsin/67/05 H3N2 (Influenza A virus A/Wisconsin/67/05 (H3N2)). Nature of the assay: trimeric HA microarray; transfection supernatant set 4.
Assay [17] addresses T1, recombinant soluble homotrimeric HA of …. As to the kind of experiment: HA microarray, control mAb.
Assay [18] concerns the target T2, recombinant soluble homotrimeric HA of …. Nature of the assay: HA microarray, control mAb.
Assay [19] deals with T3, recombinant soluble homotrimeric HA of …. As to the kind of experiment: HA microarray, control mAb.
Assay [20] addresses recombinant soluble homotrimeric HA of A/Hong Kong/2108/03 (H9N2) (Influenza A virus A/Hong Kong/2108/2003 (H9N2)). Nature of the assay: HA microarray, control mAb.
The target of assay [21] is T4, recombinant soluble homotrimeric HA of …. As to the kind of experiment: HA microarray, control mAb.
For assay [22], the target named is T5, recombinant soluble homotrimeric HA of …. Nature of the assay: HA microarray, control mAb.
For assay [23], the target named is recombinant soluble homotrimeric HA of A/Netherlands/219/03 (H7N7) (Influenza A virus A/Netherlands/219/03 (H7N7)). As to the kind of experiment: HA microarray, control mAb.
For assay [24], the target named is T6, recombinant soluble homotrimeric HA of …. As to the kind of experiment: HA microarray, control mAb.
Assay [25] deals with T7, recombinant soluble homotrimeric HA of …. Nature of the assay: HA microarray, control mAb.
Assay [26] has as its target T8, recombinant soluble homotrimeric HA of …. Nature of the assay: HA microarray, control mAb.
In assay [27] the target is T9, recombinant soluble homotrimeric HA of …. As to the kind of experiment: HA microarray, control mAb.
The target in assay [28] is T10, recombinant soluble homotrimeric HA of …. As to the kind of experiment: HA microarray, control mAb.
Assay [29] concerns the target recombinant soluble homotrimeric HA of A/swine/Ontario/01911-2/99 (H4N6) (Influenza A virus A/Swine/Ontario/01911-2/99 (H4N6)). As to the kind of experiment: HA microarray, control mAb.
Assay [30] concerns the target recombinant soluble homotrimeric HA, A/Anhui/1/05 (H5N1) (influenza A virus A/Anhui/1/2005 (H5N1)). Nature of the assay: microarray, trimeric HA, transfection supernatant.
Assay [31] deals with recombinant soluble homotrimeric HA, A/Hong Kong/156/97 (H5N1) (influenza A virus A/Hong Kong/156/97 (H5N1)). Nature of the assay: microarray, trimeric HA, transfection supernatant.
Assay [32] deals with recombinant soluble homotrimeric HA, A/duck/Yangzhou/02/2005 (H8N4) (influenza A virus A/duck/Yangzhou/02/2005 (H8N4)). As to the kind of experiment: microarray, trimeric HA, transfection supernatant.

These results are taken from patent US20150104459A1.

Several values for one entry are separate records, joined by “and”; a condition that tells them apart may be missing. Identical values can stand only once.

B1: TCN-534 (5249_B02) (antibody, V domains shown)
VH: QVQLVQSGAEVKKPGSSVKVSCRESGGTFNGYTITWVRQAPGQGLEWMGGIIPMMGTVNYAQKLQGRVTITTDYFTKTAYMDLNNLRSEDTAMYYCVKIRYTGQQLLWGQGTLVTVSS
VL: DIQMTQSPSTLSASIGDRVTITCRASQSIASWLAWYQQKPGKAPKLLIYEAVNLESGVPSRFSGSGSGTDFTLTISSLQPDDFATYFCQHYGTISQTFGGGTKVEIK
Regarding B1, the Trimeric HA Binding RLU in assay [1] stood at 6860 RLU; in [2], 30100 RLU; in assay [3], 41400 RLU; in assay [4], 46400 RLU; in assay [5], 50600 RLU; in assay [6] it was 44200 RLU. For the same molecule, the Trimeric HA Binding RLU was 3440 RLU in [7]; 7980 RLU in assay [8]; 56600 RLU in assay [9]; 46500 RLU in [10]; 52400 RLU in assay [11]; 731 RLU in assay [12]. Also, the Trimeric HA Binding RLU in [13] is 27 RLU; in assay [14], 11400 RLU; in [15] it was 21300 RLU. Besides, the Trimeric HA Binding: RLU in [16] was 897 RLU.

B2: TCN-504 (3251_K17) (antibody, V domains shown)
VH: QVQLQESGPGLVKPSETLSLTCAVSGVSISNIDFYWGWIRQPPGKGLEWIGNIYYTGITFYNPSLSSRVAISIDTSKNQFSLTLTSVTAADTAMYYCARHYGDSEAINDAFDIWGQGTMLTVSS
VL: EIVMTQSPATLSVSPGERATLSCRASQSVGNSLAWYQQRPGQAPRLLIYGASTRATGIPPRFSGSGSGTEFTLTISSLQTEDFAVYYCQQYINWRPLSFGGGTKVEIK
B2: the Trimeric HA Binding RLU in assay [17] was determined as 26200 RLU; in [18] it was 3330 RLU; in assay [19], 44400 RLU; in assay [20] it was 454 RLU; in [21] it was 43300 RLU; in [22], 4090 RLU. The Trimeric HA Binding RLU in [23] worked out at 47200 RLU; in assay [24], 24100 RLU; in [25] it was 196 RLU; in assay [26] it was 40500 RLU; in assay [27], 38500 RLU; in assay [28] it was 14100 RLU. The Trimeric HA Binding RLU is 14700 RLU in assay [29]; 30000 RLU and 14100 RLU and 37200 RLU in [30]; 26600 RLU in assay [31]; 19600 RLU and 19900 RLU and 35100 RLU in [32].
